According to paper PMC2937177:

Target: T1, KcsA (S. lividans), P0A334
T1 chain: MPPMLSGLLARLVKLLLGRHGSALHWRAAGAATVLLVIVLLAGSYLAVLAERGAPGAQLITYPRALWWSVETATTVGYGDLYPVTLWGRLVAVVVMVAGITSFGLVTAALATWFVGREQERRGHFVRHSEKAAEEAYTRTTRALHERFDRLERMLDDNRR
Assay: SDS-PAGE
Settings: remark: other sources report otherwise

- stoichiometry N: 4
B1: KcsA, P0A334 1-160 (natural protein)
chain: MPPMLSGLLARLVKLLLGRHGSALHWRAAGAATVLLVIVLLAGSYLAVLAERGAPGAQLITYPRALWWSVETATTVGYGDLYPVTLWGRLVAVVVMVAGITSFGLVTAALATWFVGREQERRGHFVRHSEKAAEEAYTRTTRALHERFDRLERMLDDNRR
